What follows are sequences tested on Escherichia coli TOP10 (assay: shrunken log2 fold change of peptide-encoding DNA abundance (4.5 h post-induction vs induction); higher = less antimicrobial activity (less host growth inhibition)). Conditions: time post-induction: 4.5 h; library: site-saturation at positions 5, 18, 19, 20.
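Also: peptides expressed intracellularly from a pBAD plasmid library in pooled LB shake-flask culture, induced with 0.3% L-arabinose, DNA abundance read by NGS, three biological replicates, DESeq2 with apeglm shrinkage.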

Row | Sequence | shrunken log2 fold change
1 | RRIRVRPPRLPRPRPRPVITPRP | -0.207
2 | RRIRHRPPRLPRPRPRPCERPRP | -0.0535
3 | RRIRQRPPRLPRPRPRPHESPRP | -0.126
4 | RRIRCRPPRLPRPRPRPSKCPRP | -0.266
5 | RRIRIRPPRLPRPRPRPFLWPRP | -0.0429
6 | RRIRYRPPRLPRPRPRPCSMPRP | -0.0147
7 | RRIRLRPPRLPRPRPRPSDLPRP | -0.163
8 | RRIRKRPPRLPRPRPRPFCAPRP | 0.588
9 | RRIRPRPPRLPRPRPRPCSIPRP | -0.232
10 | RRIRWRPPRLPRPRPRPALQPRP | 0.367
11 | RRIRNRPPRLPRPRPRPENEPRP | -0.00386
12 | RRIRHRPPRLPRPRPRPCTHPRP | -0.192
13 | RRIRDRPPRLPRPRPRPFGFPRP | -0.0238
14 | RRIRVRPPRLPRPRPRPGETPRP | -0.238
15 | RRIRARPPRLPRPRPRPFLQPRP | 0.123
16 | RRIRRRPPRLPRPRPRPRYFPRP | 0.502
17 | RRIRRRPPRLPRPRPRPHCDPRP | -0.164
18 | RRIRWRPPRLPRPRPRPHTDPRP | -0.283
19 | RRIRQRPPRLPRPRPRPTKIPRP | -0.13
20 | RRIRNRPPRLPRPRPRPNKYPRP | -0.774
21 | RRIRIRPPRLPRPRPRPVKKPRP | -0.0235
22 | RRIRGRPPRLPRPRPRPLNHPRP | 0.0752
23 | RRIRHRPPRLPRPRPRPQRRPRP | 0.0777
24 | RRIRTRPPRLPRPRPRPSQNPRP | -0.00631
25 | RRIRPRPPRLPRPRPRPNSHPRP | -0.521

Row | Sequence | shrunken log2 fold change
26 | RRIRPRPPRLPRPRPRPQKGPRP | -0.0684
27 | RRIRERPPRLPRPRPRPYGMPRP | -0.207
28 | RRIRGRPPRLPRPRPRPDVCPRP | 0.181
29 | RRIRCRPPRLPRPRPRPADWPRP | 0.29
30 | RRIRERPPRLPRPRPRPGCAPRP | 0.335
31 | RRIRIRPPRLPRPRPRPPHNPRP | -0.521
32 | RRIRPRPPRLPRPRPRPHYDPRP | -0.459
33 | RRIRLRPPRLPRPRPRPNNVPRP | -0.395
34 | RRIRTRPPRLPRPRPRPTCGPRP | -0.0204
35 | RRIRQRPPRLPRPRPRPLYAPRP | -0.399
36 | RRIRCRPPRLPRPRPRPADCPRP | -0.0557
37 | RRIRLRPPRLPRPRPRPNIWPRP | -0.0307
38 | RRIRQRPPRLPRPRPRPGESPRP | 0.0357
39 | RRIRIRPPRLPRPRPRPDDIPRP | -0.151
40 | RRIRSRPPRLPRPRPRPYEAPRP | -0.241
41 | RRIRWRPPRLPRPRPRPKWDPRP | 0.185
42 | RRIRHRPPRLPRPRPRPGHRPRP | -0.0928
43 | RRIRIRPPRLPRPRPRPKQFPRP | -0.328
44 | RRIRGRPPRLPRPRPRPYWRPRP | -0.104
45 | RRIRRRPPRLPRPRPRPGWDPRP | 0.0298
46 | RRIRYRPPRLPRPRPRPSHPPRP | -0.639
47 | RRIRHRPPRLPRPRPRPDMQPRP | -0.106
48 | RRIRYRPPRLPRPRPRPWRCPRP | 2.33
49 | RRIRIRPPRLPRPRPRPLPTPRP | 0.0405
50 | RRIRLRPPRLPRPRPRPQQGPRP | -0.0774

Row | Sequence | shrunken log2 fold change
51 | RRIRRRPPRLPRPRPRPYQEPRP | -0.259
52 | RRIRGRPPRLPRPRPRPASYPRP | -0.14
53 | RRIRVRPPRLPRPRPRPFTIPRP | -0.085
54 | RRIRDRPPRLPRPRPRPFTLPRP | -0.0329
55 | RRIRMRPPRLPRPRPRPSNYPRP | -0.078
56 | RRIRDRPPRLPRPRPRPEPCPRP | 0.064
57 | RRIRIRPPRLPRPRPRPSWEPRP | -0.621
58 | RRIRLRPPRLPRPRPRPSFWPRP | 0.0795
59 | RRIRTRPPRLPRPRPRPEETPRP | 0.0325
60 | RRIRHRPPRLPRPRPRPPRCPRP | 0.526
61 | RRIRPRPPRLPRPRPRPRIWPRP | 0.362
62 | RRIRNRPPRLPRPRPRPITDPRP | -1.28
63 | RRIRARPPRLPRPRPRPEDWPRP | 1.63
64 | RRIRLRPPRLPRPRPRPMEAPRP | -0.00122
65 | RRIRHRPPRLPRPRPRPWRAPRP | -0.0415
66 | RRIRSRPPRLPRPRPRPMFAPRP | 0.154
67 | RRIRNRPPRLPRPRPRPTGYPRP | -0.0249
68 | RRIRHRPPRLPRPRPRPNFQPRP | -0.161
69 | RRIRNRPPRLPRPRPRPICIPRP | -0.531
70 | RRIRARPPRLPRPRPRPCSLPRP | -0.272
71 | RRIRFRPPRLPRPRPRPMHTPRP | 0.5
72 | RRIRTRPPRLPRPRPRPSSYPRP | -0.0381
73 | RRIRQRPPRLPRPRPRPPQAPRP | 0.718
74 | RRIRARPPRLPRPRPRPNQSPRP | 0.0591
75 | RRIRTRPPRLPRPRPRPLQFPRP | -0.497

From the supplement of paper PMC9112550, “Optimization of the antimicrobial peptide Bac7 by deep mutational scanning” (BMC Biology, 2022)
